According to US20240390508A1 (Takeda / Millennium, published 2024):

B1: Y13-PMO conjugate of Example 60 (peptide)
peptide: AVFVWNYYIIRRYYC
chain: RRRG
modifications: not fully specified; N-terminal 4-pentynoyl-AEEA; C-terminal Gly coupled to PMO A4; MeF at 3, MeY at 14 (N-methyl); thioether ring from N-terminal chloroacetyl-Ala to Cys 15; C-terminal Gly-KN3-NH2, azide joined by copper-catalysed click to the 4-pentynoyl group of the linker …
B2: peptide-HDO conjugate of Example 23 (first nucleic acid strand A2, second nucleic acid strand C18) (peptide)
peptide: AVFVWNYYIIRRYYC
modifications: MeF at 3, MeY at 14 (N-methyl); thioether ring from N-terminal chloroacetyl-Ala to Cys 15; C-terminal Gly-KN3-NH2, azide joined to BCN on the oligonucleotide
notes: also called A2/C18
B3: peptide-HDO conjugate of Example 13 (first nucleic acid strand A2, second nucleic acid strand C13) (peptide)
peptide: AVFVWNYYIIRRYYC
modifications: MeF at 3, MeY at 14 (N-methyl); thioether ring from N-terminal chloroacetyl-Ala to Cys 15; C-terminal Gly-KN3-NH2, azide joined to BCN on the oligonucleotide
notes: also called A2/C13
B4: peptide-HDO conjugate of Example 21 (first nucleic acid strand A1, second nucleic acid strand C21) (peptide)
peptide: AVFVWNYYIIRRYYC
modifications: MeF at 3, MeY at 14 (N-methyl); thioether ring from N-terminal chloroacetyl-Ala to Cys 15; C-terminal Gly-KN3-NH2, azide joined to BCN on the oligonucleotide
notes: also called A1/C21
B5: peptide-HDO conjugate of Example 44 (first nucleic acid strand A1, second nucleic acid strand C44) (peptide)
peptide: AVFVWNYYIIRRYYC
modifications: MeF at 3, MeY at 14 (N-methyl); thioether ring from N-terminal chloroacetyl-Ala to Cys 15; C-terminal Gly-KN3-NH2, azide joined to BCN on the oligonucleotide
notes: also called A1/C44
B6: peptide-HDO conjugate of Example 27 (first nucleic acid strand A1, second nucleic acid strand C27) (peptide)
peptide: AVFVWNYYIIRRYYC
modifications: MeF at 3, MeY at 14 (N-methyl); thioether ring from N-terminal chloroacetyl-Ala to Cys 15; C-terminal Gly-KN3-NH2, azide joined to BCN on the oligonucleotide
notes: also called A1/C27
B7: Y6-HDO conjugate of Example 1 (compound A1 annealed with compound C1) (peptide)
peptide: AVFVWNYYIIRRYYC
modifications: MeF at 3, MeY at 14 (N-methyl); thioether ring from N-terminal chloroacetyl-Ala to Cys 15; C-terminal Gly-KN3-NH2, azide joined to BCN on the oligonucleotide
notes: also called A1/C1
B8: peptide-HDO conjugate of Example 25 (first nucleic acid strand A2, second nucleic acid strand C20) (peptide)
peptide: AVFVWNYYIIRRYYC
modifications: MeF at 3, MeY at 14 (N-methyl); thioether ring from N-terminal chloroacetyl-Ala to Cys 15; C-terminal Gly-KN3-NH2, azide joined to BCN on the oligonucleotide
notes: also called A2/C20
B9: peptide-HDO conjugate of Example 22 (first nucleic acid strand A2, second nucleic acid strand C17) (peptide)
peptide: AVFVWNYYIIRRYYC
modifications: MeF at 3, MeY at 14 (N-methyl); thioether ring from N-terminal chloroacetyl-Ala to Cys 15; C-terminal Gly-KN3-NH2, azide joined to BCN on the oligonucleotide
notes: also called A2/C17
B10: peptide-HDO conjugate of Example 35 (first nucleic acid strand A2, second nucleic acid strand C27) (peptide)
peptide: AVFVWNYYIIRRYYC
modifications: MeF at 3, MeY at 14 (N-methyl); thioether ring from N-terminal chloroacetyl-Ala to Cys 15; C-terminal Gly-KN3-NH2, azide joined to BCN on the oligonucleotide
notes: also called A2/C27
B11: peptide-HDO conjugate of Example 34 (first nucleic acid strand A2, second nucleic acid strand C26) (peptide)
peptide: AVFVWNYYIIRRYYC
modifications: MeF at 3, MeY at 14 (N-methyl); thioether ring from N-terminal chloroacetyl-Ala to Cys 15; C-terminal Gly-KN3-NH2, azide joined to BCN on the oligonucleotide
notes: also called A2/C26
B12: peptide-HDO conjugate of Example 18 (first nucleic acid strand A1, second nucleic acid strand C18) (peptide)
peptide: AVFVWNYYIIRRYYC
modifications: MeF at 3, MeY at 14 (N-methyl); thioether ring from N-terminal chloroacetyl-Ala to Cys 15; C-terminal Gly-KN3-NH2, azide joined to BCN on the oligonucleotide
notes: also called A1/C18
B13: peptide-HDO conjugate of Example 11 (first nucleic acid strand A2, second nucleic acid strand C11) (peptide)
peptide: AVFVWNYYIIRRYYC
modifications: MeF at 3, MeY at 14 (N-methyl); thioether ring from N-terminal chloroacetyl-Ala to Cys 15; C-terminal Gly-KN3-NH2, azide joined to BCN on the oligonucleotide
notes: also called A2/C11
B14: peptide-HDO conjugate of Example 2 (first nucleic acid strand A1, second nucleic acid strand C2) (peptide)
peptide: AVFVWNYYIIRRYYC
modifications: MeF at 3, MeY at 14 (N-methyl); thioether ring from N-terminal chloroacetyl-Ala to Cys 15; C-terminal Gly-KN3-NH2, azide joined to BCN on the oligonucleotide
notes: also called A1/C2
B15: peptide-HDO conjugate of Example 39 (first nucleic acid strand A2, second nucleic acid strand C31) (peptide)
peptide: AVFVWNYYIIRRYYC
modifications: MeF at 3, MeY at 14 (N-methyl); thioether ring from N-terminal chloroacetyl-Ala to Cys 15; C-terminal Gly-KN3-NH2, azide joined to BCN on the oligonucleotide
notes: also called A2/C31
B16: peptide-HDO conjugate of Example 47 (first nucleic acid strand A1, second nucleic acid strand C47) (peptide)
peptide: AVFVWNYYIIRRYYC
modifications: MeF at 3, MeY at 14 (N-methyl); thioether ring from N-terminal chloroacetyl-Ala to Cys 15; C-terminal Gly-KN3-NH2, azide joined to BCN on the oligonucleotide
notes: also called A1/C47
B17: peptide-HDO conjugate of Example 43 (first nucleic acid strand A2, second nucleic acid strand C42) (peptide)
peptide: AVFVWNYYIIRRYYC
modifications: MeF at 3, MeY at 14 (N-methyl); thioether ring from N-terminal chloroacetyl-Ala to Cys 15; C-terminal Gly-KN3-NH2, azide joined to BCN on the oligonucleotide
notes: also called A2/C42
B18: peptide-HDO conjugate of Example 7 (first nucleic acid strand A1, second nucleic acid strand C7) (peptide)
peptide: AVFVWNYYIIRRYYC
modifications: MeF at 3, MeY at 14 (N-methyl); thioether ring from N-terminal chloroacetyl-Ala to Cys 15; C-terminal Gly-KN3-NH2, azide joined to BCN on the oligonucleotide
notes: also called A1/C7
B19: peptide-HDO conjugate of Example 4 (first nucleic acid strand A1, second nucleic acid strand C4) (peptide)
peptide: AVFVWNYYIIRRYYC
modifications: MeF at 3, MeY at 14 (N-methyl); thioether ring from N-terminal chloroacetyl-Ala to Cys 15; C-terminal Gly-KN3-NH2, azide joined to BCN on the oligonucleotide
notes: also called A1/C4
B20: peptide-HDO conjugate of Example 10 (first nucleic acid strand A2, second nucleic acid strand C10) (peptide)
peptide: AVFVWNYYIIRRYYC
modifications: MeF at 3, MeY at 14 (N-methyl); thioether ring from N-terminal chloroacetyl-Ala to Cys 15; C-terminal Gly-KN3-NH2, azide joined to BCN on the oligonucleotide
notes: also called A2/C10
B21: peptide-HDO conjugate of Example 56 (first nucleic acid strand A4, second nucleic acid strand C56) (peptide)
peptide: AVFVWNYYIIRRYYC
modifications: not fully specified; MeF at 3, MeY at 14 (N-methyl); thioether ring from N-terminal chloroacetyl-Ala to Cys 15; C-terminal Gly-KN3-NH2, azide joined to BCN on the oligonucleotide
notes: also called A4/C56
B22: peptide-HDO conjugate of Example 41 (first nucleic acid strand A2, second nucleic acid strand C33) (peptide)
peptide: AVFVWNYYIIRRYYC
modifications: MeF at 3, MeY at 14 (N-methyl); thioether ring from N-terminal chloroacetyl-Ala to Cys 15; C-terminal Gly-KN3-NH2, azide joined to BCN on the oligonucleotide
notes: also called A2/C33
B23: peptide-HDO conjugate of Example 31 (first nucleic acid strand A1, second nucleic acid strand C31) (peptide)
peptide: AVFVWNYYIIRRYYC
modifications: MeF at 3, MeY at 14 (N-methyl); thioether ring from N-terminal chloroacetyl-Ala to Cys 15; C-terminal Gly-KN3-NH2, azide joined to BCN on the oligonucleotide
notes: also called A1/C31
B24: peptide-HDO conjugate of Example 50 (first nucleic acid strand A1, second nucleic acid strand C50) (peptide)
peptide: AVFVWNYYIIRRYYC
modifications: MeF at 3, MeY at 14 (N-methyl); thioether ring from N-terminal chloroacetyl-Ala to Cys 15; C-terminal Gly-PEG12c-KN3-NH2, azide joined to BCN on the oligonucleotide
notes: also called A1/C50
B25: peptide-HDO conjugate of Example 6 (first nucleic acid strand A1, second nucleic acid strand C6) (peptide)
peptide: AVFVWNYYIIRRYYC
modifications: MeF at 3, MeY at 14 (N-methyl); thioether ring from N-terminal chloroacetyl-Ala to Cys 15; C-terminal Gly-KN3-NH2, azide joined to BCN on the oligonucleotide
notes: also called A1/C6
B26: peptide-HDO conjugate of Example 55 (first nucleic acid strand A4, second nucleic acid strand C55) (peptide)
peptide: AVFVWNYYIIRRYYC
modifications: not fully specified; MeF at 3, MeY at 14 (N-methyl); thioether ring from N-terminal chloroacetyl-Ala to Cys 15; C-terminal Gly-KN3-NH2, azide joined to BCN on the oligonucleotide
notes: also called A4/C55
B27: peptide-HDO conjugate of Example 30 (first nucleic acid strand A1, second nucleic acid strand C30) (peptide)
peptide: AVFVWNYYIIRRYYC
modifications: MeF at 3, MeY at 14 (N-methyl); thioether ring from N-terminal chloroacetyl-Ala to Cys 15; C-terminal Gly-KN3-NH2, azide joined to BCN on the oligonucleotide
notes: also called A1/C30

Each binder was assayed against T1, human transferrin receptor (hTfR) (human, UniProt P02786 89-760, limits assumed) (assay: SPR, hTfR immobilised on NTA chip, single cycle kinetics; A = KD less than 100 nM).
T1 construct: 0.5 uM hTfR solution immobilised on a Ni-NTA chip with EDC/NHS; source and construct are not described; also called human TfR
T1 sequence (P02786 89-760 limits assumed): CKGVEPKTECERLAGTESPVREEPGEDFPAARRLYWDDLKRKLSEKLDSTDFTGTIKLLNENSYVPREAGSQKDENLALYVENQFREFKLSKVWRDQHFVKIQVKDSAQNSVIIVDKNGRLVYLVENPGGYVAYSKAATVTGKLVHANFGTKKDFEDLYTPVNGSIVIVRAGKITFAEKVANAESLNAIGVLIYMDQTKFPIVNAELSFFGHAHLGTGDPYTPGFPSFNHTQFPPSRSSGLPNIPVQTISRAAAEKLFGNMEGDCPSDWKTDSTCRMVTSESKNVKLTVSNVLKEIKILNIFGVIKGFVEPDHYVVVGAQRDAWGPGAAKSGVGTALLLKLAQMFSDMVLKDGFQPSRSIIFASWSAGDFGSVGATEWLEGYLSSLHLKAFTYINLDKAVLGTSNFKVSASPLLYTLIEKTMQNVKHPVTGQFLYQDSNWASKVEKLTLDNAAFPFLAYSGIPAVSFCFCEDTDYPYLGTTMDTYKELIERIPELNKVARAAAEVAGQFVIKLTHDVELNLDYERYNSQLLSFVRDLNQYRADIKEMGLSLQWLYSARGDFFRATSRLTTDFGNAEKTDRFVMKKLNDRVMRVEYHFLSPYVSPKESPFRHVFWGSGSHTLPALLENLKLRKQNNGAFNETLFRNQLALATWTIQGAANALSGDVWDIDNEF
Procedure: The various synthesized peptide-nucleic acid conjugates were tested for intermolecular interaction by surface plasmon resonance (SPR) of the peptide-nucleic acid conjugate with transferrin receptor (hTfR) using the method shown below. The specific test method is shown below.
NTA sensor chip (Global Life Science Technologies Japan Co., Ltd.) was inserted into Biacore T200 (Global Life Science Technologies Japan Co., Ltd.), prime operation was performed three times with running buffer: 10 mM HEPES pH 8.0 (Nacalai Tesque Co., Ltd.), 150 mM NaCl (Nacalai Tesque Co., Ltd.), 0.05% Tween 20 (Nacalai Tesque Co., Ltd.), 0.1% BSA (SIGMA-ALDRICH), and 1.0% DMSO (FUJIFILM Wako Pure Chemical Corporation), and equilibrated at a flow rate of 30 μL/min. 350 mM EDTA solution was reacted for 60 seconds at a flow rate of 10 μL/min, 0.5 mM NiCl₂ solution (Kishida Chemical) was reacted for 60 seconds at a flow rate of 10 μL/min, and the NTA sensor chip was washed with 3 mM EDTA solution (Nacalai Tesque Co., Ltd.) for 60 seconds at a flow rate of 10 μL/min. After mixing 50 μL each of 60 mM EDC solution (Global Life Science Technologies Japan Co., Ltd.) and 650 mM NHS solution (Global Life Science Technologies Japan Co., Ltd.), the mixture was reacted for 420 seconds at a flow rate of 10 μL/min. 150 μL of a 0.5 μM hTfR solution was prepared by diluting with a running buffer and reacted for 300 seconds at a flow rate of 10 μL/min to immobilize hTfR on the NTA sensor chip. After immobilization, capping was performed by reacting with a 1.0 M ethanolamine aqueous solution (Global Life Science Technologies Japan Co., Ltd.) at a flow rate of 10 μL/min for 420 seconds. A peptide-nucleic acid conjugate solution adjusted to 10 mM in DMSO solution was diluted with running buffer to a final concentration of […] peptide-nucleic acid conjugate solution, and 100 nM, 50 nM, 25 nM, 10 nM, 5 nM peptide-nucleic acid conjugate solutions were prepared. Using the aforementioned samples, the kinetics of the peptide against hTfR was obtained by SPR measurement.
The kinetics evaluation model was Single Cycle Kinetics, and curve fitting was performed using Biacore T200 Evaluation Software Version 3.0 (Global Life Science Technologies Japan Co., Ltd.).

Kd, < 100 nM:
B1
B2
B3
B4
B5
B6
B7
B8
B9
B10
B11
B12
B13
B14
B15
B16
B17
B18
B19
B20
B21
B22
B23
B24
B25
B26
B27
